Measured values published in patent US20240132578A1.

Experiments:
Assay in all cases: cell-based or functional assay
[1] = molecular target: HIV-1 Env of isolate 98IN022 (subtype C) (HIV-1)
[2] = molecular target: HIV-1 Env of isolate MGRM-C-027 (subtype C) (HIV-1)
[3] = molecular target: HIV-1 Env of isolate MGRM-G-015 (subtype G), on pseudovirus (HIV-1)
[4] = molecular target: HIV-1 Env of isolate MGRM-C-013 (subtype C) (HIV-1)
[5] = molecular target: HIV-1 Env of isolate MGRM-G-017 (subtype G), on pseudovirus (HIV-1)
[6] = molecular target: HIV-1 Env of isolate MGRM-C-008 (subtype C) (HIV-1)
[7] = molecular target: HIV-1 Env of isolate MGRM-C-015 (subtype C) (HIV-1)
[8] = molecular target: HIV-1 Env of isolate MGRM-G-014 (subtype G), on pseudovirus (HIV-1)
[9] = molecular target: HIV-1 Env of isolate MGRM-G-013 (subtype G), on pseudovirus (HIV-1)
[10] = molecular target: HIV-1 Env of isolate MGRM-G-009 (subtype G), on pseudovirus (HIV-1)
[11] = molecular target: HIV-1 Env of isolate MGRM-G-028 (subtype G), on pseudovirus (HIV-1)
[12] = molecular target: HIV-1 Env of isolate MGRM-C-022 (subtype C) (HIV-1)
[13] = molecular target: HIV-1 Env of isolate MGRM-C-001 (subtype C) (HIV-1)
[14] = molecular target: HIV-1 Env of isolate MGRM-G-025 (subtype G), on pseudovirus (HIV-1)
[15] = molecular target: HIV-1 Env of isolate MGRM-C-006 (subtype C) (HIV-1)
[16] = molecular target: HIV-1 JR-CSF Env D477A (HIV-1 JR-CSF) (UniProt P20871)
[17] = molecular target: HIV-1 Env of isolate MGRM-C-028 (subtype C) (HIV-1)
[18] = molecular target: HIV-1 Env of isolate MGRM-C-004 (subtype C) (HIV-1)
[19] = molecular target: HIV-1 Env of isolate MGRM-C-020 (subtype C) (HIV-1)
[20] = molecular target: HIV-1 Env of isolate MGRM-C-005 (subtype C) (HIV-1)
[21] = molecular target: HIV-1 Env of isolate MGRM-G-019 (subtype G), on pseudovirus (HIV-1)
[22] = molecular target: HIV-1 Env of isolate MGRM-C-014 (subtype C) (HIV-1)
[23] = molecular target: HIV-1 Env of isolate MGRM-G-024 (subtype G), on pseudovirus (HIV-1)
[24] = molecular target: HIV-1 Env of isolate MGRM-C-002 (subtype C) (HIV-1)
[25] = molecular target: HIV-1 Env of isolate MGRM-G-006 (subtype G), on pseudovirus (HIV-1)
[26] = molecular target: HIV-1 Env of isolate MGRM-C-025 (subtype C) (HIV-1)
[27] = molecular target: HIV-1 Env of isolate 97ZA012 (subtype C) (HIV-1)
[28] = molecular target: HIV-1 Env of isolate MGRM-G-027 (subtype G), on pseudovirus (HIV-1)
[29] = molecular target: HIV-1 Env of isolate MGRM-C-019 (subtype C) (HIV-1)
[30] = molecular target: HIV-1 Env of isolate MGRM-C-009 (subtype C) (HIV-1)
[31] = molecular target: HIV-1 Env of isolate MGRM-G-011 (subtype G), on pseudovirus (HIV-1)
[32] = molecular target: HIV-1 Env of isolate MGRM-G-016 (subtype G), on pseudovirus (HIV-1)
[33] = molecular target: HIV-1 Env of isolate MGRM-C-017 (subtype C) (HIV-1)
[34] = molecular target: HIV-1 Env of isolate MGRM-G-001 (subtype G), on pseudovirus (HIV-1)
[35] = molecular target: HIV-1 Env of isolate 93MW959 (subtype C) (HIV-1)
[36] = molecular target: aMLV envelope, on pseudovirus (negative control)
[37] = molecular target: HIV-1 Env of isolate MGRM-C-007 (subtype C) (HIV-1)
[38] = molecular target: HIV-1 Env of isolate MGRM-C-010 (subtype C) (HIV-1)
[39] = molecular target: HIV-1 Env of isolate MGRM-G-004 (subtype G), on pseudovirus (HIV-1)
[40] = molecular target: HIV-1 Env of isolate MGRM-C-023 (subtype C) (HIV-1)
[41] = molecular target: HIV-1 JR-CSF Env N478A (HIV-1 JR-CSF) (UniProt P20871)
[42] = molecular target: HIV-1 Env of isolate MGRM-C-012 (subtype C) (HIV-1)
[43] = molecular target: HIV-1 Env of isolate MGRM-C-026 (subtype C) (HIV-1)
[44] = molecular target: HIV-1 Env of isolate MGRM-C-024 (subtype C) (HIV-1)
[45] = molecular target: HIV-1 JR-CSF Env R476A (HIV-1 JR-CSF) (UniProt P20871)

B1: PGT-125 (antibody, V domains shown)
VH: QSQLQESGPRLVEASETLSLTCNVSGESTGACTYFWGWVRQAPGKGLEWIGSLSHCQSFWGSGWTFHNPSLKSRLTISLDTPKNQVFLKLTSLTAADTATYYCARFDGEVLVYNHWPKPAWVDLWGRGIPVTVSS
VL: QSALTQPPSASGSPGQSITISCNGTATNFVSWYQQFPDKAPKLIIFGVDKRPPGVPDRFSGSRSGTTASLTVSRLQTDDEAVYYCGSLVGNWDVIFGGGTTLTVL
IC50 (µg/mL), pseudovirus neutralization [1]: 22.1 µg/mL
IC50 (µg/mL), pseudovirus neutralization [2]: > 50 µg/mL
IC50 (µg/mL), neutralization of pseudovirus [3]: > 50 µg/mL
IC50 (µg/mL), pseudovirus neutralization [4]: > 50 µg/mL
IC50 (µg/mL), neutralization of pseudovirus [5]: > 50 µg/mL
IC50 (µg/mL), pseudovirus neutralization [6]: > 50 µg/mL
IC50 (µg/mL), pseudovirus neutralization [7]: > 50 µg/mL
IC50 (µg/mL), neutralization of pseudovirus [8]: 0.007 µg/mL
IC50 (µg/mL), neutralization of pseudovirus [9]: > 50 µg/mL
IC50 (µg/mL), neutralization of pseudovirus [10]: > 50 µg/mL
IC50 (µg/mL), neutralization of pseudovirus [11]: 0.012 µg/mL
IC50 (µg/mL), pseudovirus neutralization [12]: 1.23 µg/mL
IC50 (µg/mL), pseudovirus neutralization [13]: > 50 µg/mL
IC50 (µg/mL), neutralization of pseudovirus [14]: > 50 µg/mL
IC50 (µg/mL), pseudovirus neutralization [15]: 0.015 µg/mL
Fold IC50 increase relative to wild-type [16]: 3.4 fold
IC50 (µg/mL), pseudovirus neutralization [17]: 14 µg/mL
IC50 (µg/mL), pseudovirus neutralization [18]: 1.82 µg/mL
IC50 (µg/mL), pseudovirus neutralization [19]: > 50 µg/mL
IC50 (µg/mL), pseudovirus neutralization [20]: 2.09 µg/mL
IC50 (µg/mL), neutralization of pseudovirus [21]: > 50 µg/mL
IC50 (µg/mL), pseudovirus neutralization [22]: > 50 µg/mL
IC50 (µg/mL), neutralization of pseudovirus [23]: > 50 µg/mL
IC50 (µg/mL), pseudovirus neutralization [24]: 0.008 µg/mL
IC50 (µg/mL), neutralization of pseudovirus [25]: > 50 µg/mL
IC50 (µg/mL), pseudovirus neutralization [26]: 42.5 µg/mL
IC50 (µg/mL), pseudovirus neutralization [27]: 2.46 µg/mL
IC50 (µg/mL), neutralization of pseudovirus [28]: 34.4 µg/mL
IC50 (µg/mL), pseudovirus neutralization [29]: 0.13 µg/mL
IC50 (µg/mL), pseudovirus neutralization [30]: > 50 µg/mL
IC50 (µg/mL), neutralization of pseudovirus [31]: > 50 µg/mL
IC50 (µg/mL), neutralization of pseudovirus [32]: > 50 µg/mL
IC50 (µg/mL), pseudovirus neutralization [33]: 2.36 µg/mL
IC50 (µg/mL), neutralization of pseudovirus [34]: 0.033 µg/mL
IC50 (µg/mL), pseudovirus neutralization [35]: 37.5 µg/mL
IC50 (µg/mL), neutralization of pseudovirus [36]: > 50 µg/mL
IC50 (µg/mL), pseudovirus neutralization [37]: > 50 µg/mL
IC50 (µg/mL), pseudovirus neutralization [38]: > 50 µg/mL
IC50 (µg/mL), neutralization of pseudovirus [39]: > 50 µg/mL
IC50 (µg/mL), pseudovirus neutralization [40]: 1.31 µg/mL
Fold IC50 increase relative to wild-type [41]: 1.5 fold
IC50 (µg/mL), pseudovirus neutralization [42]: > 50 µg/mL
IC50 (µg/mL), pseudovirus neutralization [43]: 0.005 µg/mL
IC50 (µg/mL), pseudovirus neutralization [44]: > 50 µg/mL

B2: PGT-123 (antibody, V domains shown)
VH: QLHLQESGPGLVKPPETLSLTCSVSGASINDAYWSWIRQSPGKRPEWVGYVHHSGDTNYNPSLKRRVTFSLDTAKNEVSLKLVDLTAADSATYFCARALHGKRIYGIVALGELFTYFYMDVWGKGTAVTVSS
VL: SSMSVSPGETAKISCGKESIGSRAVQWYQQKPGQPPSLIIYNNQDRPAGVPERFSASPDFRPGTTATLTITNVDAEDEADYYCHIYDARGGTNWVFDRGTTLTVL
IC50 (µg/mL), pseudovirus neutralization [1]: 0.011 µg/mL
IC50 (µg/mL), pseudovirus neutralization [2]: 0.02 µg/mL
IC50 (µg/mL), neutralization of pseudovirus [3]: > 50 µg/mL
IC50 (µg/mL), pseudovirus neutralization [4]: 14.9 µg/mL
IC50 (µg/mL), neutralization of pseudovirus [5]: 0.026 µg/mL
IC50 (µg/mL), pseudovirus neutralization [6]: 0.011 µg/mL
IC50 (µg/mL), pseudovirus neutralization [7]: 13.1 µg/mL
IC50 (µg/mL), neutralization of pseudovirus [8]: 0.005 µg/mL
IC50 (µg/mL), neutralization of pseudovirus [9]: 3.97 µg/mL
IC50 (µg/mL), neutralization of pseudovirus [10]: 33.5 µg/mL
IC50 (µg/mL), neutralization of pseudovirus [11]: 0.008 µg/mL
IC50 (µg/mL), pseudovirus neutralization [12]: 0.01 µg/mL
IC50 (µg/mL), pseudovirus neutralization [13]: 42.4 µg/mL
IC50 (µg/mL), neutralization of pseudovirus [14]: 0.046 µg/mL
IC50 (µg/mL), pseudovirus neutralization [15]: 0.021 µg/mL
Fold IC50 increase relative to wild-type [16]: 2.3 fold
IC50 (µg/mL), pseudovirus neutralization [17]: 0.402 µg/mL
IC50 (µg/mL), pseudovirus neutralization [18]: 0.009 µg/mL
IC50 (µg/mL), pseudovirus neutralization [19]: > 50 µg/mL
IC50 (µg/mL), pseudovirus neutralization [20]: 0.012 µg/mL
IC50 (µg/mL), neutralization of pseudovirus [21]: 0.008 µg/mL
IC50 (µg/mL), pseudovirus neutralization [22]: 1 µg/mL
IC50 (µg/mL), neutralization of pseudovirus [23]: 0.032 µg/mL
IC50 (µg/mL), pseudovirus neutralization [24]: 0.01 µg/mL
IC50 (µg/mL), neutralization of pseudovirus [25]: > 50 µg/mL
IC50 (µg/mL), pseudovirus neutralization [26]: 13.3 µg/mL
IC50 (µg/mL), pseudovirus neutralization [27]: 0.002 µg/mL
IC50 (µg/mL), neutralization of pseudovirus [28]: 0.182 µg/mL
Fold IC50 increase relative to wild-type [45]: 2 fold
IC50 (µg/mL), pseudovirus neutralization [29]: > 50 µg/mL
IC50 (µg/mL), pseudovirus neutralization [30]: > 50 µg/mL
IC50 (µg/mL), neutralization of pseudovirus [31]: 14.9 µg/mL
IC50 (µg/mL), neutralization of pseudovirus [32]: > 50 µg/mL
IC50 (µg/mL), pseudovirus neutralization [33]: 0.01 µg/mL
IC50 (µg/mL), neutralization of pseudovirus [34]: 0.009 µg/mL
IC50 (µg/mL), pseudovirus neutralization [35]: 0.011 µg/mL
IC50 (µg/mL), neutralization of pseudovirus [36]: > 50 µg/mL
IC50 (µg/mL), pseudovirus neutralization [37]: 0.547 µg/mL
IC50 (µg/mL), pseudovirus neutralization [38]: > 50 µg/mL
IC50 (µg/mL), neutralization of pseudovirus [39]: 0.181 µg/mL
IC50 (µg/mL), pseudovirus neutralization [40]: 0.011 µg/mL
IC50 (µg/mL), pseudovirus neutralization [42]: 0.605 µg/mL
IC50 (µg/mL), pseudovirus neutralization [43]: 0.001 µg/mL
IC50 (µg/mL), pseudovirus neutralization [44]: 0.195 µg/mL
